Assay results as given in publication PMC2944003.

Target: human complement receptor 3 (CR3) on CR3-transfected CHO cells (CHO/CR3) (human), P11215
Test: flow cytometry on cells
Conditions: remark: other sources report otherwise

B1: Factor H (fH), purified human, P08603 19-1231 (natural protein)
chain: EDCNELPPRRNTEILTGSWSDQTYPEGTQAIYKCRPGYRSLGNVIMVCRKGEWVALNPLRKCQKRPCGHPGDTPFGTFTLTGGNVFEYGVKAVYTCNEGYQLLGEINYRECDTDGWTNDIPICEVVKCLPVTAPENGKIVSSAMEPDREYHFGQAVRFVCNSGYKIEGDEEMHCSDDGFWSKEKPKCVEISCKSPDVINGSPISQKIIYKENERFQYKCNMGYEYSERGDAVCTESGWRPLPSCEEKSCDNPYIPNGDYSPLRIKHRTGDEITYQCRNGFYPATRGNTAKCTSTGWIPAPRCTLKPCDYPDIKHGGLYHENMRRPYFPVAVGKYYSYYCDEHFETPSGSYWDHIHCTQDGWSPAVPCLRKCYFPYLENGYNQNYGRKFVQGKSIDVACHPGYALPKAQTTVTCMENGWSPTPRCIRVKTCSKSSIDIENGFISESQYTYALKEKAKYQCKLGYVTADGETSGSITCGKDGWSAQPTCIKSCDIPVFMNARTKNDFTWFKLNDTLDYECHDGYESNTGSTTGSIVCGYNGWSDLPICYERECELPKIDVHLVPDRKKDQYKVGEVLKFSCKPGFTIVGPNSVQCYHFGLSPDLPICKEQVQSCGPPPELLNGNVKEKTKEEYGHSEVVEYYCNPRFLMKGPNKIQCVDGEWTTLPVCIVEESTCGDIPELEHGWAQLSSPPYYYGDSVEFNCSESFTMIGHRSITCIHGVWTQLPQCVAIDKLKKCKSSNLIILEEHLKNKKEFDHNSNIRYRCRGKEGWIHTVCINGRWDPEVNCSMAQIQLCPPPPQIPNSHNMTTTLNYRDGEKVSVLCQENYLIQEGEEITCKDGRWQSIPLCVEKIPCSQPPQIEHGTINSSRSSQESYAHGTKLSYTCEGGFRISEENETTCYMGKWSSPPQCEGLPCKSPPEISHGVVAHMSDSYQYGEEVTYKCFEGFGIDGPAIAKCLGEKWSHPPSCIKTDCLSLPSFENAIPMGEKKDVYKAGEQVTYTCATYYKMDGASNVTCINSRWTGRPTCRDTSCVNPPTVQNAYIVSRQMSKYPSGERVRYQCRSPYEMFGDEEVMCLNGNWTEPPQCKDSTGKCGPPPPIDNGDITSFPLSVYAPASSVEYQCQNLYQLEGNKRITCRNGQWSEPPKCLHPCVISREIMENYNIALRWTAKQKLYSRTGESVEFVCKRGYRLSSRSHTLRTTCWDGKLEYPTCAKR
  fold increase in binding to CHO/CR3 cells compared to CHO/NEO cells: 4 fold
